Ends that are not written are not given here.
Target: T1, caspase-1 (Homo sapiens, UniProt P29466)
T1 sequence (P29466 120-297 limits assumed): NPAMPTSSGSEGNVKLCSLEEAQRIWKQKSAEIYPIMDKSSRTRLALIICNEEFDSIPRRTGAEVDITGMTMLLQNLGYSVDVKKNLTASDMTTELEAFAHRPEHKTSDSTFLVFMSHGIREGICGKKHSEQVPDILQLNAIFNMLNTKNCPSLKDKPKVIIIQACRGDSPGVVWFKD
T1 sequence (P29466 317-404 limits assumed): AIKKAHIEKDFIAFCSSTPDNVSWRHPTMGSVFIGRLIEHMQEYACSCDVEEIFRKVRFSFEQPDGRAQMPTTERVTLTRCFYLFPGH
Experiment: Caspase-1 treatment followed by HPLC analysis
Assay type: biochemical
Details: treated with caspase-1, HPLC analysis, FIG. 2
Experimental: Compound E1 obtained in Example 1, Compound E7 obtained in Example 7, and finasteride were prepared. Then, these compounds were treated with caspase-1, and analyzed with high performance liquid chromatography (HPLC). The results are illustrated in FIGS. 2 and 3.

Compound E7: finasteride linked via caspase-1 cleavage site (YVAD) and linkers to CTP+cysteine peptide (SEQ ID NO: 6) (YGRRARRRRRRC; also: finasteride linked via caspase-1 cleavage site (YVAD) and linkers, attachment site not given here)
cleavage of the compound on treatment with caspase-1 (HPLC): cleaved into two moieties, that is, finasteride and the protein transduction domain

— US11890364B2, “Composition for prevention or treatment of hair loss” (GOOD T CELLS, INC., priority 2017, dated 2024)
